Data taken from US8765669B2, “Glycosylated GLP-1 peptide” (Glytech, Inc., priority 2008, dated 2014).
No end group written: not given here.

Target: T1, DPP-IV (dipeptidyl peptidase IV from porcine kidney) (Sus scrofa, UniProt P22411)
T1 construct: dipeptidyl peptidase IV from porcine kidney, product of SIGMA; purchased SIGMA; host or cells: porcine kidney (tissue-derived enzyme)
Test: Test of resistance to dipeptidyl peptidase IV (DPP-IV)
Type: in vitro ADME
Conditions: half-life (t1/2) in DPP-IV solution at 37° C., GLP-1 of Comparative Example 1 defined as standard (=1)
Experimental: Each solution mixture was adjusted with 100 mM sodium phosphate buffer to 100 μl in total and allowed to react at 37° C. A 10 μaliquot of the reaction solution was mixed with 15 μl of 10% trifluoroacetic acid prepared in advance in another Eppendorf tube.

T1 sequence (P22411 whole entry): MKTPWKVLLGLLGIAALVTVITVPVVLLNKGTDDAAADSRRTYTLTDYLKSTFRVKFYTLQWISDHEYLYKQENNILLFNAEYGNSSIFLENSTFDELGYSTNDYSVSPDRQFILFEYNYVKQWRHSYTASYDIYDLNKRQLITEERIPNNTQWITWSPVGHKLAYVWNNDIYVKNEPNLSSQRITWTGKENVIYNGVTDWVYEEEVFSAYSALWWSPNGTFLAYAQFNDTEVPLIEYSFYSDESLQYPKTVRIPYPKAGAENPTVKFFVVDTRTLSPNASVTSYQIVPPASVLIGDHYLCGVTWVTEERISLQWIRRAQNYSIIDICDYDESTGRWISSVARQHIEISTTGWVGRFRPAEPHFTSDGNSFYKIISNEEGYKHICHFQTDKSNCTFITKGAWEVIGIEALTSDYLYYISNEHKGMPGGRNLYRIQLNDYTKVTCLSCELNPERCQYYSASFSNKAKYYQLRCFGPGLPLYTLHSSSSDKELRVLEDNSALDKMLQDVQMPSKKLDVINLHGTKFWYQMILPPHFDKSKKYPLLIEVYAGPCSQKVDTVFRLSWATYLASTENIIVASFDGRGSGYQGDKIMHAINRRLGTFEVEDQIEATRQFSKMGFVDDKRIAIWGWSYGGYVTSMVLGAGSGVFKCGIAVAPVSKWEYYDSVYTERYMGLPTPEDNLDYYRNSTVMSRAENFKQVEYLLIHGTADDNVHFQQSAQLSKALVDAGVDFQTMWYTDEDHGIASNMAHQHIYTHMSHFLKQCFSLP

| Compound | Relative Resistance |
| --- | --- |
| 36Cys-hyaluronic acid octasaccharide (HA-8) Added GLP-1 Peptide (HAEGTFTSDVSSYLEGQAAKEFIAWLVKGC(hyaluronic acid octasaccharide)G) [Example 9] | 3 |
| CC[C@H](C)[C@H](NC(=O)[C@H](Cc1ccccc1)NC(=O)[C@H](CCC(=O)O)NC(=O)[C@H](CCCCN)NC(=O)[C@H](C)NC(=O)[C@H](C)NC(=O)[C@H](CCC(N)=O)NC(=O)[C@H](CSCC(=O)N[C@@H]1O[C@H](CO)[C@@H](O[C@@H]2O[C@H](CO)[C@@H](O[C@@H]3O[C@H](CO[C@H]4O[C@H](CO)[C@@H](O)[C@H](O)[C@@H]4O[C@@H]4O[C@H](CO)[C@@H](O[C@@H]5O[C@H](CO[C@]6(C(=O)O)C[C@H](O)[C@@H](NC(C)=O)[C@H]([C@H](O)[C@H](O)CO)O6)[C@H](O)[C@H](O)[C@H]5O)[C@H](O)[C@H]4NC(C)=O)[C@@H](O)[C@H](O[C@H]4O[C@H](CO)[C@@H](O)[C@H](O)[C@@H]4O[C@@H]4O[C@H](CO)[C@@H](O[C@@H]5O[C@H](CO[C@]6(C(=O)O)C[C@H](O)[C@@H](NC(C)=O)[C@H]([C@H](O)[C@H](O)CO)O6)[C@H](O)[C@H](O)[C@H]5O)[C@H](O)[C@H]4NC(C)=O)[C@@H]3O)[C@H](O)[C@H]2NC(C)=O)[C@H](O)[C@H]1NC(C)=O)NC(=O)[C@H](CCC(=O)O)NC(=O)[C@H](CC(C)C)NC(=O)[C@H](Cc1ccc(O)cc1)NC(=O)[C@H](CO)NC(=O)[C@H](CO)NC(=O)[C@@H](NC(=O)[C@H](CC(=O)O)NC(=O)[C@H](CO)NC(=O)[C@@H](NC(=O)[C@H](Cc1ccccc1)NC(=O)[C@@H](NC(=O)CNC(=O)[C@H](CCC(=O)O)NC(=O)[C@H](C)NC(=O)[C@@H](N)Cc1c[nH]cn1)[C@@H](C)O)[C@@H](C)O)C(C)C)C(=O)N[C@@H](CSCC(=O)N[C@@H]1O[C@H](CO)[C@@H](O[C@@H]2O[C@H](CO)[C@@H](O[C@@H]3O[C@H](CO[C@H]4O[C@H](CO)[C@@H](O)[C@H](O)[C@@H]4O[C@@H]4O[C@H](CO)[C@@H](O[C@@H]5O[C@H](CO[C@]6(C(=O)O)C[C@H](O)[C@@H](NC(C)=O)[C@H]([C@H](O)[C@H](O)CO)O6)[C@H](O)[C@H](O)[C@H]5O)[C@H](O)[C@H]4NC(C)=O)[C@@H](O)[C@H](O[C@H]4O[C@H](CO)[C@@H](O)[C@H](O)[C@@H]4O[C@@H]4O[C@H](CO)[C@@H](O[C@@H]5O[C@H](CO[C@]6(C(=O)O)C[C@H](O)[C@@H](NC(C)=O)[C@H]([C@H](O)[C@H](O)CO)O6)[C@H](O)[C@H](O)[C@H]5O)[C@H](O)[C@H]4NC(C)=O)[C@@H]3O)[C@H](O)[C@H]2NC(C)=O)[C@H](O)[C@H]1NC(C)=O)C(=O)N[C@@H](Cc1c[nH]c2ccccc12)C(=O)N[C@@H](CC(C)C)C(=O)N[C@H](C(=O)N[C@@H](CCCCN)C(=O)NCC(=O)N[C@@H](CCCNC(=N)N)C(=O)NCC(=O)O)C(C)C [Example 3, 22 and 30Cys-disialo oligosaccharide Chain Added GLP-1] | 32.5 |
